Experimental findings from patent US20180087116, “METHODS AND BIOSENSORS FOR TUMOR DETECTION” (published 2018) are described below.

Data set [1] concerns the target Human serum albumin (HSA) (Homo sapiens, UniProt P02768 P02768:25-609). Put plainly: selectivity control, 20 nM HSA in PBS; methylene blue release fluorescence; values only in figure. Particulars: label: methylene blue (non-covalently adsorbed). The procedure:
(§1) In this example, the fabricated MB/aptamer/nanomotors of EXAMPLE 1 were guided by a magnetic field into solutions (human serum samples) containing various concentration of VEGF165 to react with the fabricated MB/aptamer/nanomotor for about 40 minutes. MB can specifically bind with guanine bases in ss-DNA and the used aptamer herein as a type of ss-DNA riches of guanine bases. The fabricated MB/aptamer/nanomotors were stored at about 4° C. in the refrigerator when they were not in use. Then, the MB/aptamer/nanomotors biosensor was guided to solutions containing the various concentration of VEGF165 tumor marker. Upon exposing MB/aptamer/nanomotor with VEGF165, the adsorbed MB to aptamers released to the solution and let to increase the fluorescence signal of MB. The proposed nanomotor may be used for ‘on-the-fly’ interaction of biological targets such as VEGF165 by functionalizing the gold surface of the nanomotor with various bio-receptors.
In addition, to evaluate the selectivity of the proposed biosensor, some of bio-molecules such as human serum albumin (HSA), bovine serum albumin (BSA), glucose (G), urea (U), dopamine (D) and human immunoglobulin G (HIgG) were used as the potential interferences to evaluate the specificity and the results were shown in FIG. 7.

In data set [2] the target is VEGF165 (UniProt P15692-4 P15692-4:27-191). Put plainly: methylene blue release from aptamer/nanomotor, fluorescence increase; linear response 2.5-30 nM VEGF165; human serum samples or PBS, 40 min. Particulars: chain copies: 2; label: methylene blue (non-covalently adsorbed). The procedure:
as §1
In FIG. 6B, relative fluorescence changes are calculated by F/F0, where F0 (7.8) and F are the fluorescence intensity without and with VEGF165, respectively, and excitation wavelength was 625 nm.

Chain of VEGF165 (P15692 other isoform, or with tags, fused parts or gaps): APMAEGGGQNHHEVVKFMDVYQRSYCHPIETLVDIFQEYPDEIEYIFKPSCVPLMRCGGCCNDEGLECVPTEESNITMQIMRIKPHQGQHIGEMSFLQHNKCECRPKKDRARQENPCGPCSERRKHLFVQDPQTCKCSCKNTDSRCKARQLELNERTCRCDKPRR
Chain of Human serum albumin (HSA) (P02768 25-609, one chain of several): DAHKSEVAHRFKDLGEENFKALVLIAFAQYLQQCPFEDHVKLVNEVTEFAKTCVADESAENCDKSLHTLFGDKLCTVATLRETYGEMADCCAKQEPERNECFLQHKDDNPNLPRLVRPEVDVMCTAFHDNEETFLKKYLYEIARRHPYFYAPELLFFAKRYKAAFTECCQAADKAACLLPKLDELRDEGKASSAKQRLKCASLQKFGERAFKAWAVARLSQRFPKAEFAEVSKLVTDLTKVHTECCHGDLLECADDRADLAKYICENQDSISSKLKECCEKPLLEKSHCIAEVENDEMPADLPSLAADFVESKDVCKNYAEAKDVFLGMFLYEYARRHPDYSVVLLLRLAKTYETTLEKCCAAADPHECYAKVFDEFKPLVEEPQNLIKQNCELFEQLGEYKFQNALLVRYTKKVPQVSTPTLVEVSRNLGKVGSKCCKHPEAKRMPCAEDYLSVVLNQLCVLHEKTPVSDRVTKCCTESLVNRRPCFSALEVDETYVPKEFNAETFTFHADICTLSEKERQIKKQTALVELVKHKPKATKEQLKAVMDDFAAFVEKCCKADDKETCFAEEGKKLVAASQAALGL

B1: anti-VEGF DNA aptamer (ssDNA)
DNA: TTTCCCGTCTTCCAGACAAGAGTGCAGGG
modifications: 5'-SH (thiol), immobilised on Au segment of nanomotor
Regarding B1, the values for the binding result in data set [1] and in data set [2] were “no binding” and “binds”, respectively.
